Test [1] deals with T1, annexin-V, membrane-bound trimeric form (A5) (human), P08758.
T1 chain: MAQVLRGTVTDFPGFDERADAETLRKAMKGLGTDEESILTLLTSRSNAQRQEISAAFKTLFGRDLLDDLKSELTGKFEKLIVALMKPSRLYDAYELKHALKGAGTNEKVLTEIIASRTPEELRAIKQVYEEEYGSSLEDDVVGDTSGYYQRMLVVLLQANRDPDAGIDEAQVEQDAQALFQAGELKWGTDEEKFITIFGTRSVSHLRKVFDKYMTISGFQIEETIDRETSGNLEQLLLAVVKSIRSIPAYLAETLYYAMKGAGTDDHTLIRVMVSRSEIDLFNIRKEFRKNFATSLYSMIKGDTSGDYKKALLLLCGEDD
The experiment in a line: HS-AFM line scanning (HS-AFM-LS); line scanned across one protomer of the non-p6 trimer in the A5 p6-lattice, 2.4 ms per line; dwell-times in each orientation before rotation. Conditions: remark: other sources report otherwise.

Test [2] deals with T1, annexin-V, membrane-bound trimeric form …. The experiment in a line: HS-AFM height spectroscopy (HS-AFM-HS); tip on one protomer of the rotating non-p6 trimer at the centre of the hexagonal A5 p6-lattice; dwell-times in the 0° and 60° orientations; captured at 655 kHz. Conditions: remark: other sources report otherwise.

B1: annexin-V, membrane-bound trimeric form (A5), P08758 1-320 (natural protein)
chain: MAQVLRGTVTDFPGFDERADAETLRKAMKGLGTDEESILTLLTSRSNAQRQEISAAFKTLFGRDLLDDLKSELTGKFEKLIVALMKPSRLYDAYELKHALKGAGTNEKVLTEIIASRTPEELRAIKQVYEEEYGSSLEDDVVGDTSGYYQRMLVVLLQANRDPDAGIDEAQVEQDAQALFQAGELKWGTDEEKFITIFGTRSVSHLRKVFDKYMTISGFQIEETIDRETSGNLEQLLLAVVKSIRSIPAYLAETLYYAMKGAGTDDHTLIRVMVSRSEIDLFNIRKEFRKNFATSLYSMIKGDTSGDYKKALLLLCGEDD
On to B1, for which, in test [1], the average dwell-time in the 0° or 60° orientation before rotation worked out at 35 ms, the peak of the distribution of state dwell-times before rotation (Gaussian 1 of 3) is 13 ms, the peak of the distribution of state dwell-times before rotation (Gaussian 2 of 3) turned out to be 41 ms and the peak of the distribution of state dwell-times before rotation (Gaussian 3 of 3) was determined as 96 ms. In test [2], this molecule gave an average dwell-time in the 0° or 60° orientation before rotation of 26 ms.
